Usually stoichiometry N stands for the number of molecules, sites or subunits per partner or assembly.

These results are taken from article PMC5801593 (Frontiers in Molecular Biosciences, 2017).

Holding throughout (settings): both partners purified
The target of assay [1] is T1, IscU-IscS complex (immobilized IscS saturated with IscU) (E. coli, UniProt P0A6B7 1-404; P0ACD4 2-128, biotin (site not stated)).
T1 construct: IscS, cysteine desulfurase of E. coli; as the chain of m7; IscU of E. coli; as the chain of m4; also called IscS saturated by IscU; source: formed on the biosensor from purified E. coli-made proteins: immobilized IscS saturated by IscU (10 μM); copies: 2 +
The experiment in a line: BLI; IscS immobilised and saturated by IscU (10 μM), titrated with IscX 0-60 μM; apparent Kd, 1:1 model.

The target of assay [2] is T2, biotinylated IscS (E. coli, UniProt P0A6B7 1-404, biotin (site not stated)).
T2 construct: IscS, cysteine desulfurase of E. coli; Same protein as m1, biotinylated to hold it on streptavidin biosensors; also called immobilized IscS; source: E. coli BL21(DE3), purified (Ni-NTA, TEV cleavage, gel filtration), biotinylated
Description: BLI; biotinylated IscS immobilised on streptavidin biosensors, IscX 0-50 μM; 20 mM HEPES pH 7.5, 150 mM NaCl, 2 mM TCEP, 0.5 mg/mL BSA, 25°C; apparent Kd, 1:1 model; data not shown. For orientation: In BLI a coated tip is dipped into the sample, and binding shifts an interference pattern.

In assay [3] the target is T3, cysteine desulfurase IscS (E. coli, UniProt P0A6B7 1-404).
T3 construct: IscS, cysteine desulfurase of E. coli; Dimer by native MS (observed 91,035 Da, predicted 91,037 Da); An adduct of about +304 Da is put down to beta-mercaptoethanol hetero-disulfides; also called wild-type IscS; source: E. coli BL21(DE3), purified (Ni-NTA, TEV cleavage, gel filtration)
The experiment in a line: native MS; ESI-MS under non-denaturing conditions; IscS 3 μM in 250 mM ammonium acetate pH 8, IscX at 0-16 IscX/IscS molar ratios, 5 min at room temperature; sequential binding model (DynaFit).

Assay [4] has as its target T3, cysteine desulfurase IscS. The experiment in a line: BLI; competition: biotinylated CyaY immobilised on streptavidin biosensors, exposed to 10 μM IscS at IscX 0-60 μM; 20 mM HEPES pH 7.5, 150 mM NaCl, 2 mM TCEP, 0.5 mg/mL BSA, 25°C; apparent Kd from the response reduction, 1:1 model.

B1: IscX (natural protein, E. coli, UniProt P0C0L9 1-66, looked up)
chain: MGLKWTDSREIGEALYDAYPDLDPKTVRFTDMHQWICDLEDFDDDPQASNEKILEAILLVWLDEAE
modifications: also: mixed disulfide with β-mercaptoethanol on majority of protein, most likely
notes: IscX (YfhJ) of E. coli; Predicted mass 7859 Da, observed 7935 Da; the predicted mass may include some; also called YfhJ; source: E. coli BL21(DE3), purified (Ni-NTA, TEV cleavage, gel filtration)
With B1, in assay [1], the Kd worked out at 8 ± 2 µM. Further, in assay [2], the Kd was found to be 8 ± 3 µM. Also, in assay [3], the “Kd of the first two IscX per IscS dimer (primary site)” value came to 13.7 ± 0.4 µM; the “Kd of the third and fourth IscX per IscS dimer (secondary site)” value amounted to 170 ± 10 µM; the “stoichiometry N” value is at most 4 IscX per IscS dimer. Moreover, the Kd in assay [4] worked out at 6 ± 2 µM.

B2: biotinylated CyaY (natural protein, E. coli, UniProt P27838 1-106, looked up)
chain: MNDSEFHRLADQLWLTIEERLDDWDGDSDIDCEINGGVLTITFENGSKIIINRQEPLHQVWLATKQGGYHFDLKGDEWICDRSGETFWDLLEQAATQQAGETVSFR
modifications: biotin (site not stated)
notes: CyaY, frataxin ortholog of E. coli; Same protein as m3, biotinylated to hold it on streptavidin biosensors; also called immobilized CyaY; source: E. coli BL21(DE3), purified (Ni-NTA, TEV cleavage, gel filtration), biotinylated
As for B2, the binding result in assay [4] is given as “binds”.
